Assay results from patent US20210253718A1, “FRIZZLED5 PROTEIN-BINDING AGENTS” (Modmab Therapeutics Corporation, priority 2016, published 2021).
Positions count from the first letter of the chain named. Each block holds one molecule with its values, some of them ahead of it.

Tests used:
FZD3 CRD = target: T1, FZD3 CRD (Homo sapiens, UniProt Q9NPG1); assay: Immunofluorescence of anti-FZD5 Fab binding to CHO cells overexpressing Frizzled CRD; design: key: −: no binding; +: very weak binder; ++: weak binder; +++: good binder; ++++: very good binder
T1 construct: CRD of FZD1, FZD2, FZD3, FZD4, FZD5, FZD6, FZD7, FZD8, FZD9 or FZD10; GPI anchor signal (C); expressed in transfected cells; host or cells: CHO cells, lentiviral pLenti-puro
T1 sequence (Q9NPG1 23-136 limits assumed): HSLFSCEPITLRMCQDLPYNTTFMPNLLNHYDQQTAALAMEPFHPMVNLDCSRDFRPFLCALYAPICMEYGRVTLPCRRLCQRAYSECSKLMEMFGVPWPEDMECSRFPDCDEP
In short: (§1)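 First, ten CHO cell lines were made, each lentivirally expressing a different human Frizzled CRD tagged with myc and tethered by GPI. Next, anti-FZD5 Fabs were added to each line. Finally, binding was assessed by immunofluorescence and flow cytometry.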

FZD7 CRD = target: T2, FZD7 CRD (Homo sapiens, UniProt O75084); assay: as above; design: key: −: no binding; +: very weak binder; ++: weak binder; +++: good binder; ++++: very good binder
T2 construct: D45-S169; GPI anchor signal (C); expressed in transfected cells; host or cells: CHO cells, lentiviral pLenti-puro
In short: as §1

FZD8 CRD = target: T3, FZD8 CRD (Homo sapiens, UniProt Q9H461); assay: as above; design: key: −: no binding; +: very weak binder; ++: weak binder; +++: good binder; ++++: very good binder
T3 construct: K31-D155; GPI anchor signal (C); expressed in transfected cells; host or cells: CHO cells, lentiviral pLenti-puro
T3 sequence (Q9H461 31-155): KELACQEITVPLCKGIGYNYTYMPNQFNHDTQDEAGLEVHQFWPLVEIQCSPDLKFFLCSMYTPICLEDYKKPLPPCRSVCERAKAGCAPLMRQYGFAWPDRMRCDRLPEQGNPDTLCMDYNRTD
In short: as §1

ASPC-1 cells [1] = assay: Effect of anti-FZD5 Fabs on proliferation of pancreatic cancer cell lines (percent growth inhibition); type: cell-based, human; settings: Fab 10 μg/ml
Method: (§2) The effect of presently disclosed anti-FZD5 Fabs on proliferation of RNF43 loss-of-function mutant pancreatic cancer cell lines HPAFII, PATU8988S and ASPC-1; and on pancreatic cancer cell line RWP1, was tested at […] and 10 μg/ml.

HPAFII cells = assay: as above; type: cell-based, human; settings: for percent growth inhibition, HPAFII 2 μg/ml: Fab 2 μg/ml; for percent growth inhibition, HPAFII 10 μg/ml: Fab 10 μg/ml
Method: as §2

PATU8988S cells [2] = assay: as above; type: cell-based, human; settings: Fab 10 μg/ml
Method: as §2

RWP1 cells [3] = assay: as above; type: cell-based, human; settings: Fab 10 μg/ml
Method: as §2

[4] = tested on: CHO cells not expressing Frizzled CRD; assay: Flow cytometry of anti-FZD5 Fab binding to CHO cells not expressing Frizzled CRD (background)
Description: The binding of anti-FZD5 Fabs to cell surface-expressed Frizzled protein was further determined for each member of the Frizzled family via flow cytometry and immunofluorescence analysis of a panel of 10 CHO cell lines, each ectopically over-expressing the extracellular cysteine-rich domain (CRD) of a different Frizzled protein family member.

PATU8988S cells [5] = assay: Effect of anti-FZD5 Fabs on proliferation of pancreatic cancer cell lines (percent growth inhibition); type: cell-based, human; settings: Fab 2 μg/ml
ASPC-1 cells [6] = assay: as above; type: cell-based, human; settings: Fab 2 μg/ml
RWP1 cells [7] = assay: as above; type: cell-based, human; settings: Fab 2 μg/ml

B1: Fab-2930: anti-FZD5 Fab with antibody variable region Fv-2930; CDR SEQ ID NOs: 35, 36, 69, 107, 145, 153 (antibody, V domains shown)
VH: EVQLVESGGGLVQPGGSLRLSCAASGFNLSYYYIHWVRQAPGKGLEWVASIYPYSGSTSYADSVKGRFTISADTSKNTAYLQMNSLRAEDTAVYYCARGALDYWGQGTLVTVSS
VL: DIQMTQSPSSLSASVGDRVTITCRASQSVSSAVAWYQQKPGKAPKLLIYSASSLYSGVPSRFSGSRSGTDFTLTISSLQPEDFATYYCQQWYGPYLITFGQGTKVEIK
Immunofluorescence binding, Frizzled CRD overexpressed on CHO cells: FZD3 (FZD3 CRD): −
Immunofluorescence binding, Frizzled CRD overexpressed on CHO cells: FZD7 (FZD7 CRD): +
Immunofluorescence binding, Frizzled CRD overexpressed on CHO cells: FZD8 (FZD8 CRD): +
percent growth inhibition, ASPC-1 10 μg/ml (ASPC-1 cells [1]): 37.33%
percent growth inhibition, HPAFII 2 μg/ml (HPAFII cells): −10.77%
percent growth inhibition, HPAFII 10 μg/ml (HPAFII cells): 7.81%
percent growth inhibition, PATU8988s 10 μg/ml (PATU8988S cells [2]): −13.64%
percent growth inhibition, RWP1 10 μg/ml (RWP1 cells [3]): 10.72%
Median fluorescence, Frizzled CRD overexpressed on CHO cells: None [4]: 4.66
percent growth inhibition, PATU8988s 2 μg/ml (PATU8988S cells [5]): −0.39%
percent growth inhibition, ASPC-1 2 μg/ml (ASPC-1 cells [6]): 21.31%
percent growth inhibition, RWP1 2 μg/ml (RWP1 cells [7]): 17.91%

B4: Fab-2936: anti-FZD5 Fab with antibody variable region Fv-2936; CDR SEQ ID NOs: 35, 36, 75, 112, 151, 179 (antibody, V domains shown)
VH: B1 VH with L29I, I34M, P53S, Y54S, G99A, L101M
VL: B1 VL with G93A, P94A, Y95S
Immunofluorescence binding, Frizzled CRD overexpressed on CHO cells: FZD3 (FZD3 CRD): −
Immunofluorescence binding, Frizzled CRD overexpressed on CHO cells: FZD7 (FZD7 CRD): −
Immunofluorescence binding, Frizzled CRD overexpressed on CHO cells: FZD8 (FZD8 CRD): +
percent growth inhibition, ASPC-1 10 μg/ml (ASPC-1 cells [1]): 22.02%
percent growth inhibition, HPAFII 2 μg/ml (HPAFII cells): −0.56%
percent growth inhibition, HPAFII 10 μg/ml (HPAFII cells): 12.21%
percent growth inhibition, PATU8988s 10 μg/ml (PATU8988S cells [2]): −23.52%
percent growth inhibition, RWP1 10 μg/ml (RWP1 cells [3]): −5.97%
Median fluorescence, Frizzled CRD overexpressed on CHO cells: None [4]: 2.81
percent growth inhibition, PATU8988s 2 μg/ml (PATU8988S cells [5]): −8.03%
percent growth inhibition, ASPC-1 2 μg/ml (ASPC-1 cells [6]): 17.01%
percent growth inhibition, RWP1 2 μg/ml (RWP1 cells [7]): 0.02%

More lines, main results first:

Immunofluorescence binding, Frizzled CRD overexpressed on CHO cells: FZD3 (FZD3 CRD): −
Immunofluorescence binding, Frizzled CRD overexpressed on CHO cells: FZD7 (FZD7 CRD): −
Immunofluorescence binding, Frizzled CRD overexpressed on CHO cells: FZD8 (FZD8 CRD): +
B2: Fab-2935: anti-FZD5 Fab with antibody variable region Fv-2935; CDR SEQ ID NOs: 35, 36, 74, 111, 150, 178 (antibody, V domains shown)
VH: B1 VH with L29I, S30Y, Y54S, G99A, L101F
VL: DIQMTQSPSSLSASVGDRVTITCRASQSVSSAVAWYQQKPGKAPKLLIYSASSLYSGVPSRFSGSRSGTDFTLTISSLQPEDFATYYCQQWYGGYALITFGQGTKVEIK
percent growth inhibition, ASPC-1 10 μg/ml (ASPC-1 cells [1]): 24.63%
percent growth inhibition, HPAFII 2 μg/ml (HPAFII cells): −9.18%
percent growth inhibition, HPAFII 10 μg/ml (HPAFII cells): −10.62%
percent growth inhibition, PATU8988s 10 μg/ml (PATU8988S cells [2]): −22.12%
percent growth inhibition, RWP1 10 μg/ml (RWP1 cells [3]): 10.15%
Median fluorescence, Frizzled CRD overexpressed on CHO cells: None [4]: 3.46
percent growth inhibition, PATU8988s 2 μg/ml (PATU8988S cells [5]): 2.48%
percent growth inhibition, ASPC-1 2 μg/ml (ASPC-1 cells [6]): 4.75%
percent growth inhibition, RWP1 2 μg/ml (RWP1 cells [7]): −14.51%

Immunofluorescence binding, Frizzled CRD overexpressed on CHO cells: FZD3 (FZD3 CRD): −
Immunofluorescence binding, Frizzled CRD overexpressed on CHO cells: FZD7 (FZD7 CRD): ++
Immunofluorescence binding, Frizzled CRD overexpressed on CHO cells: FZD8 (FZD8 CRD): +
B3: Fab-2932: anti-FZD5 Fab with antibody variable region Fv-2932; CDR SEQ ID NOs: 35, 36, 71, 108, 147, 153 (antibody, V domains shown)
VH: B1 VH with L29I, Y32S, I34M, P53S, Y54S, S55Y, G56S
VL: B2 VL with G94S, Y95F
percent growth inhibition, ASPC-1 10 μg/ml (ASPC-1 cells [1]): 28.62%
percent growth inhibition, HPAFII 2 μg/ml (HPAFII cells): −0.17%
percent growth inhibition, HPAFII 10 μg/ml (HPAFII cells): 3.21%
percent growth inhibition, PATU8988s 10 μg/ml (PATU8988S cells [2]): −8.85%
percent growth inhibition, RWP1 10 μg/ml (RWP1 cells [3]): 25.69%
Median fluorescence, Frizzled CRD overexpressed on CHO cells: None [4]: 3.59
percent growth inhibition, PATU8988s 2 μg/ml (PATU8988S cells [5]): −14.70%
percent growth inhibition, ASPC-1 2 μg/ml (ASPC-1 cells [6]): 28.71%
percent growth inhibition, RWP1 2 μg/ml (RWP1 cells [7]): 32.22%

Immunofluorescence binding, Frizzled CRD overexpressed on CHO cells: FZD3 (FZD3 CRD): −
Immunofluorescence binding, Frizzled CRD overexpressed on CHO cells: FZD7 (FZD7 CRD): −
Immunofluorescence binding, Frizzled CRD overexpressed on CHO cells: FZD8 (FZD8 CRD): +
B5: Fab-2934: anti-FZD5 Fab with antibody variable region Fv-2934; CDR SEQ ID NOs: 35, 36, 73, 110, 149, 155 (antibody, V domains shown)
VH: B1 VH with L29I, Y32S, I34M, P53S, Y54S, L101I
VL: B1 VL with G93H, P94Y, Y95G
percent growth inhibition, ASPC-1 10 μg/ml (ASPC-1 cells [1]): 36.76%
percent growth inhibition, HPAFII 2 μg/ml (HPAFII cells): 3.40%
percent growth inhibition, HPAFII 10 μg/ml (HPAFII cells): 20.44%
percent growth inhibition, PATU8988s 10 μg/ml (PATU8988S cells [2]): 1.78%
percent growth inhibition, RWP1 10 μg/ml (RWP1 cells [3]): 0.90%
Median fluorescence, Frizzled CRD overexpressed on CHO cells: None [4]: 3.13
percent growth inhibition, PATU8988s 2 μg/ml (PATU8988S cells [5]): −9.14%
percent growth inhibition, ASPC-1 2 μg/ml (ASPC-1 cells [6]): 26.80%
percent growth inhibition, RWP1 2 μg/ml (RWP1 cells [7]): 7.90%

Immunofluorescence binding, Frizzled CRD overexpressed on CHO cells: FZD3 (FZD3 CRD): −
Immunofluorescence binding, Frizzled CRD overexpressed on CHO cells: FZD7 (FZD7 CRD): +
Immunofluorescence binding, Frizzled CRD overexpressed on CHO cells: FZD8 (FZD8 CRD): +
B6: Fab-2933: anti-FZD5 Fab with antibody variable region Fv-2933; CDR SEQ ID NOs: 35, 36, 72, 109, 148, 177 (antibody, V domains shown)
VH: EVQLVESGGGLVQPGGSLRLSCAASGFNLYSSYMHWVRQAPGKGLEWVASIYSSYGYTSYADSVKGRFTISADTSKNTAYLQMNSLRAEDTAVYYCARTVRGSKKPYFSGWAMDYWGQGTLVTVSS
VL: DIQMTQSPSSLSASVGDRVTITCRASQSVSSAVAWYQQKPGKAPKLLIYSASSLYSGVPSRFSGSRSGTDFTLTISSLQPEDFATYYCQQFWWYASWLFTFGQGTKVEIK
percent growth inhibition, ASPC-1 10 μg/ml (ASPC-1 cells [1]): 19.44%
percent growth inhibition, HPAFII 2 μg/ml (HPAFII cells): −14.19%
percent growth inhibition, HPAFII 10 μg/ml (HPAFII cells): −6.12%
percent growth inhibition, PATU8988s 10 μg/ml (PATU8988S cells [2]): −17.17%
percent growth inhibition, RWP1 10 μg/ml (RWP1 cells [3]): 27.16%
Median fluorescence, Frizzled CRD overexpressed on CHO cells: None [4]: 3.92
percent growth inhibition, PATU8988s 2 μg/ml (PATU8988S cells [5]): 6.02%
percent growth inhibition, ASPC-1 2 μg/ml (ASPC-1 cells [6]): −1.03%
percent growth inhibition, RWP1 2 μg/ml (RWP1 cells [7]): −21.16%
